Series [1] is classed as physicochemical. The settings on record: pH 7.4. How it is done: To a pre-saturated mixture of 500 µL 1-octanol and 500 µL of phosphate-buffered saline (PBS) (pH 7.4), 10 µL of 1 µM of the ^177Lu-labeled conjugates were added. The solution was vortexed for 1 h to reach the equilibrium and then centrifuged (3000 rpm) for 10 min. From each phase, 100 µL of the aliquot was removed and measured in a γ-counter. Each measurement was repeated three times. Care was taken to avoid cross-contamination between the phases. The partition coefficient was calculated as the average of the logarithmic values (n = 3) of the ratio between the radioactivity in the organic and the PBS phase.

For series [2], the system named is dual SST2- and SST5-expressing xenografts. The settings on record: use of basic amino acids; reference not given; cited from earlier work.
The target of series [3] is T1, human SST2 (Homo sapiens, UniProt P30874).
T1 construct: expressed in transfected cells; host or cells: HEK cells (HEK-SST2), stably transfected
Also on record: method as in PMID 32757150. The settings on record: HEK-SST2 membranes, 125I-SS-14 radioligand; cited from earlier work.

Series [4] deals with T1, human SST2. The series can be described thus: Competition binding assay with 125I-SS-14 on membranes of HEK-SST2 cells. Particulars: 125I-SS-14 radioligand. As to the method:
(§1) Human Embryonic Kidney (HEK) cells were stably transfected with plasmids encoding the human SST2 and SST5 (HEK-SST2 and HEK-SST5) and cultivated as previously described. […] Nontransfected HEK cells were used as negative control.
(§2) Binding assays were performed as described previously.

In a further series the target is T2, human SST5 (Homo sapiens, UniProt P35346).
T2 construct: expressed in transfected cells; host or cells: HEK cells (HEK-SST5), stably transfected
The series can be described thus: Competition binding assay with 125I-SS-14 on membranes of HEK-SST5 cells. Particulars: 125I-SS-14 radioligand. How it is done:
as §1, §2

Read-outs that look alike come from different tables or passages of the source.

T1 sequence (P30874 whole entry): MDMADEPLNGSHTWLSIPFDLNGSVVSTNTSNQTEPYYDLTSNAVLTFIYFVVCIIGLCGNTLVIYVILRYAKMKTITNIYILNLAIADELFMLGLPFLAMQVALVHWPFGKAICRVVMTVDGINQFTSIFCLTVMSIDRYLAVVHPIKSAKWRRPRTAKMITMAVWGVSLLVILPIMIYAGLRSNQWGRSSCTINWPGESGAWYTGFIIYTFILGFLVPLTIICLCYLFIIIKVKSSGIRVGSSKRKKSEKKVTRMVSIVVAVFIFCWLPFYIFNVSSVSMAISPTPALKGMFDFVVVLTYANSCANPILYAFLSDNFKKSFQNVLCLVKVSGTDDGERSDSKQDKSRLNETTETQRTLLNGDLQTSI
T2 sequence (P35346 whole entry): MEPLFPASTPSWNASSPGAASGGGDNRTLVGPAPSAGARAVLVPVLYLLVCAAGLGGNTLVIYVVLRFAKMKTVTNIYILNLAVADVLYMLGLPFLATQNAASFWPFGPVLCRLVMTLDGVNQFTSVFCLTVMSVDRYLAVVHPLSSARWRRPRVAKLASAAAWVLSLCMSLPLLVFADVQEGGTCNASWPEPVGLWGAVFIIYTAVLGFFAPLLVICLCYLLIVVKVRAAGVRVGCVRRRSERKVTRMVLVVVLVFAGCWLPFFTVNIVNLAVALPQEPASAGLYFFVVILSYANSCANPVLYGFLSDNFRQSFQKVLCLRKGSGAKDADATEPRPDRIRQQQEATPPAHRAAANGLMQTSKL

Broadly, the logD is the decadic logarithm of the distribution of all forms, ionised or not, between an organic phase and buffer at a given pH. Low readings indicate a more hydrophilic compound, high ones a more lipophilic compound. Molecule `C[C@@H](O)[C@@H]1NC(=O)[C@H](CCCCN)NC(=O)[C@@H](Cc2c[nH]c3ccccc23)NC(=O)[C@H](Cc2cccc3ccccc23)NC(=O)[C@@H](NC(=O)[C@@H](Cc2ccccc2)NC(=O)CN2CCN(CC(=O)O)CCN(CC(=O)O)CCN(CC(=O)O)CC2)CSSC[C@@H](C(=O)N[C@H](CO)[C@@H](C)O)NC1=O` [[^177Lu]Lu-DOTA-NOC, metal not drawn, reference compound] had a logD in series [1] of -1.6 ± 0.1.
[^177Lu]Lu-DOTA-TATE: the “Kidney uptake reduction with basic amino acids” value in series [2] is 40%.
A word on the IC50: it is the concentration needed to halve the response being measured. As to “(4-amino-3-iodo)-D-Phe-c[Cys-(3-iodo)-Tyr-D-Trp-Lys-Val-Cys]-Thr-NH2 [ST8950]”, in the series with human SST2 [3], the half-inhibitory concentration (IC50) is 0.28 nM.
As for “^natGa-DOTA-NOC: natGa complex of DOTA-NOC, values from”, the 50% inhibitory concentration (IC50) in the series with human SST2 [3] was 0.7 nM.
Consider `CC(C)[C@@H]1NC(=O)[C@H](CCCCN)NC(=O)[C@@H](Cc2c[nH]c3ccccc23)NC(=O)[C@H](Cc2ccc(O)c(I)c2)NC(=O)[C@@H](NC(=O)[C@@H](Cc2ccc(N)c(I)c2)NC(=O)CN2CCN(CC(=O)O)CCN(CC(=O)O)CCN(CC(=O)O)CC2)CSSC[C@@H](C(=O)N[C@H](C(N)=O)[C@@H](C)O)NC1=O` [^natLu-DOTA-ST8950, metal not drawn], for which the 50% inhibitory concentration (IC50) on human SST2 [4] was 0.37 nM.
As to `C[C@@H](O)[C@@H]1NC(=O)[C@H](CCCCN)NC(=O)[C@@H](Cc2c[nH]c3ccccc23)NC(=O)[C@H](Cc2cccc3ccccc23)NC(=O)[C@@H](NC(=O)[C@@H](Cc2ccccc2)NC(=O)CN2CCN(CC(=O)O)CCN(CC(=O)O)CCN(CC(=O)O)CC2)CSSC[C@@H](C(=O)N[C@H](CO)[C@@H](C)O)NC1=O` [^natLu-DOTA-NOC, metal not drawn, reference compound], the IC50 was found to be 0.51 nM on human SST2 [4] and 4.8 nM on human SST5.

The values are drawn from article PMC7570871, “Evaluation of a New ^177Lu-Labeled Somatostatin Analog for the Treatment of Tumors Expressing Somatostatin Receptor Subtypes 2 and 5” (Molecules, 2020).
